Results on 20 molecules are retold here after US7329410.

Assay [1] addresses Mouse MHC Class I (mouse B6 class I antigens; D^b or K^b molecules on the surface of RMA-S cells) (mouse). In words: binding of 9mer peptide to mouse B6 (H-2^b) class I antigens; RMA-S cell assay as for Table XLVII.
Assay [2] has the same target. The experiment in a line: RMA-S cells incubated with peptide 25 ug/ml, stained with FITC anti-D^b or anti-K^b, flow cytometry; increase in MFI over medium alone. (In flow cytometry, cells or beads pass a laser one at a time.)

Take QARMFPNAP [WT1 peptide P124-132 …]: in assay [1], the Binding Affinity to Mouse MHC Class I came to 1%. On to NQMNLGATL [WT1 peptide p239-247 …], for which the Binding Affinity to Mouse MHC Class I (percent increase of D^b or K^b on RMA-S cells) in assay [2] turned out to be 1%.

In assay [2], NLYQMTSQL [WT1 peptide p225-233 …] came in with a Binding Affinity to Mouse MHC Class I (percent increase of D^b or K^b on RMA-S cells) of 5.8%. In assay [1], FPNAPYLPS [WT1 peptide P128-136 …] came in with a Binding Affinity to Mouse MHC Class I of 1%. The same measure, in the same setting: the value for PSQASSGQA [WT1 peptide P117-125 …] was 2%; that for NAPYLPSCL [WT1 peptide P130-138 …] was 79%. Molecule QASSGQARM [WT1 peptide P119-127 …] showed a Binding Affinity to Mouse MHC Class I in assay [1] of 2%.

For YSSDNLYQM [WT1 peptide p221-229 …], the Binding Affinity to Mouse MHC Class I (percent increase of D^b or K^b on RMA-S cells) in assay [2] came out at 0.8%. Same read-out and setting: then ALLPAVPSL [WT1 peptide human p10-18 …], with 2.2%.

Regarding MFPNAPYLP [WT1 peptide P127-135 …], the Binding Affinity to Mouse MHC Class I in assay [1] stood at 2%.

Consider SSGQARMFP [WT1 peptide P121-129 …], for which, in assay [1], the Binding Affinity to Mouse MHC Class I was 1%.

As for QMTSQLECM [WT1 peptide p228-236 …], the Binding Affinity to Mouse MHC Class I (percent increase of D^b or K^b on RMA-S cells) in assay [2] stood at 1.2%. SQASSGQAR [WT1 peptide P118-126 …] showed a Binding Affinity to Mouse MHC Class I in assay [1] of 2%.

In turn, CMTWNQMNL [WT1 peptide p235-243 …] gave a Binding Affinity to Mouse MHC Class I (percent increase of D^b or K^b on RMA-S cells) in assay [2] of 33.6%. In the case of ASSGQARMF [WT1 peptide P120-128 …], in assay [1], the Binding Affinity to Mouse MHC Class I stood at 1%. Regarding SCLESQPAI [WT1 peptide human p136-144 …], the Binding Affinity to Mouse MHC Class I (percent increase of D^b or K^b on RMA-S cells) in assay [2] came out at 52%. On to ARMFPNAPY [WT1 peptide P125-133 …], for which the Binding Affinity to Mouse MHC Class I in assay [1] worked out at 1%.

In assay [2], GCNKRYFKL [WT1 peptide p329-337 …] returned a Binding Affinity to Mouse MHC Class I (percent increase of D^b or K^b on RMA-S cells) of 1.2%. APYLPSCLE [WT1 peptide P131-139 …]: the Binding Affinity to Mouse MHC Class I in assay [1] was found to be 1%. Molecule PNAPYLPSC [WT1 peptide P129-137 …] displayed a Binding Affinity to Mouse MHC Class I in assay [1] of 1%.
